According to patent US20080058263A1 (published 2008):

T1: VEGFR-3-Fc (UniProt P35916 25-328)
T1 construct: domain: first three Ig domains; conditioned supernatant of 293T cells; also called VEGFR-3-Fc fusion protein; not shown: Fc fragment of the pIg vector
T1 sequence (looked up): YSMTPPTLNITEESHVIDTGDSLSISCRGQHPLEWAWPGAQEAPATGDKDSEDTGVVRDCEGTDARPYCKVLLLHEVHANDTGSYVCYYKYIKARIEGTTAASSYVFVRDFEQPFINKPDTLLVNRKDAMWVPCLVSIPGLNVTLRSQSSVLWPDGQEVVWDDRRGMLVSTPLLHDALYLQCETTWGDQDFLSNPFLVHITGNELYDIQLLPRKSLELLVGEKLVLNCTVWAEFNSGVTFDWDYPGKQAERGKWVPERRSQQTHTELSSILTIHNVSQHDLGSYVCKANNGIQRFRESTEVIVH


Key:
Assay in all cases: receptor-Fc IP
[1] = target: T2, VEGFR-1-Fc (UniProt P17948 27-338)
T2 construct: domain: first three Ig domains; expressed in Drosophila S2 cells, purified on Protein A sepharose; also called VEGFR-1-Fc fusion protein; not shown: Fc fragment from the Signal-pIgPlus vector
In short: (§1)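 fusion protein at 400 ng/ml in an IP mix (PBS, 1.5% BSA, 0.06% Tween 20, 3 μg/ml heparin) was combined with sample supernatant at a 1:2 ratio. Bound ligand captured by immunoprecipitation with pentahistidine antibody.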

[2] = target: T3, VEGFR-2-Fc (UniProt P35968 20-322)
T3 construct: domain: first 3 Ig domains; conditioned supernatant of 293T cells; also called VEGFR-2-Fc fusion protein; not shown: Fc fragment of the pIg vector
In short: as §1

[3] = target: T1, VEGFR-3-Fc
In short: as §1

T3 sequence (P35968 20-322): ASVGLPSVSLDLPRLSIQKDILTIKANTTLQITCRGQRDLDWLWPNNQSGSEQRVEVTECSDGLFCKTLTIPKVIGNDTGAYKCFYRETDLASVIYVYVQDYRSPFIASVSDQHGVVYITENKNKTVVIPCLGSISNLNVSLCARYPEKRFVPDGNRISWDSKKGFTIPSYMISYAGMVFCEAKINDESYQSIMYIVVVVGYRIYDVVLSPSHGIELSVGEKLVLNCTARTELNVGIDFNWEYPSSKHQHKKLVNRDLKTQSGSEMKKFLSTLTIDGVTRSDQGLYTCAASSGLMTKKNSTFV
T2 sequence (P17948 27-338): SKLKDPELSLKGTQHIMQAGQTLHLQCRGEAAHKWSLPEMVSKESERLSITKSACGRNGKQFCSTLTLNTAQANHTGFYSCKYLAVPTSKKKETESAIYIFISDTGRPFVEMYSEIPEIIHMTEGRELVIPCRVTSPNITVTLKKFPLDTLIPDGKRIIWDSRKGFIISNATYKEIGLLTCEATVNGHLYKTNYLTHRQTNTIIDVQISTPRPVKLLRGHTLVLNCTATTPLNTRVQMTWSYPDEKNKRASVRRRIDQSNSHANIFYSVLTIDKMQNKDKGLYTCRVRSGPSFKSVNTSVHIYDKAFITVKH

| Binder | binding result [1] | binding result [2] | binding result [3] |
| --- | --- | --- | --- |
| 72-10 (ligand) GQNHHEVVKSIDNEWRKTQCMPREVCIDVGKEFGVATNTFFKPPCVSVYRCGGCCNDEGLECMNTSTSYLSKTLFEITVPLSQGPKPVTISFLQHNKCECRPKKD | no binding | binds | binds |
| 72-12 (ligand) GQNHHEVVKSIDNEWRKTQCMPREVCIDVGKEFGVATNTFFKPPCVSVYRCGGCCNSEGLQCMNTSTSYLSKTLFEITVPLSQGPKPVTISFLQHNKCECRPKKD | no binding | binds | binds |
| 22-3 (ligand) AHYNTEILKSIDNEWRKTQCMPREVCIDVGKEFGVATNTFFKPPCVSVYRCGGCCNSEGLQCVPTEESNITMQIMRIKPHQGQHIGEMSFLQHNKCECRPKKD | no binding | no binding | binds |
| 11-1 (ligand) GQNHHEVVKFMDVYQRSYCHPIETLVDIFQEYPDEIEYIFKPSCVPLMRCGGCCNDEGLECVPTEESNITMQIMRIKPHQGQHIGEMSFLQHNKCECRPKKDLVFEQKLISEEDLNSAVDHHHHHH | binds | binds | no binding |
| 72-4 (ligand) GQNHHEVVKSIDNEWRKTQCMPREVCIDVGKEFGVATNTFFKPPCVSVYRCGGCCNSEGLQCMNTSTSYLSKTLFEIKPHQGQHIGEMSFLQHNKCECRPKKD | no binding | binds | binds |
| 72-6 (ligand) GQNHHEVVKSIDNEWRKTQCMPREVCIDVGKEFGVATNTFFKPPCVSVYRCGGCCNDEGLECMNTSTSYLSKTLFEIKPHQGQHIGEMSFANHTSCRCMSKLD | no binding | no binding | binds |
| 72-8 (ligand) GQNHHEVVKSIDNEWRKTQCMPREVCIDVGKEFGVATNTFFKPPCVSVYRCGGCCNSEGLQCMNTSTSYLSKTLFEIKPHQGQHIGEMSFANHTSCRCMSKLD | no binding | binds | binds |
| 61-15 (ligand) GQNHHEVVKFMDVYQRSYCHPREVCIDVGKEYPDEIEYIFKPSCVPLMRCGGCCNSEGLQCVPTEESNITMQIMRITVPLSQGPKPVTISFANHTSCRCMSKLD | no binding | no binding | no binding |
| 43-15 (ligand) AHYNTEILKFMDVYQRSYCHPREVCIDVGKEYPDEIEYIFKPPCVSVYRCGGCCNSEGLQCVPTEESNITMQIMRITVPLSQGPKPVTISFANHTSCRCMSKLD | no binding | no binding | no binding |
| 61-11 (ligand) GQNHHEVVKFMDVYQRSYCHPREVCIDVGKEYPDEIEYIFKPSCVPLMRCGGCCNSEGLQCVPTEESNITMQIMRITVPLSQGPKPVTISFLQHNKCECRPKKD | no binding | no binding | no binding |
| 62-15 (ligand) GQNHHEVVKFMDVYQRSYCHPREVCIDVGKEFGVATNTFFKPPCVSVYRCGGCCNSEGLQCVPTEESNITMQIMRITVPLSQGPKPVTISFANHTSCRCMSKLD | no binding | no binding | no binding |
| 11-15 (ligand) GQNHHEVVKFMDVYQRSYCHPIETLVDIFQEYPDEIEYIFKPSCVPLMRCGGCCNSEGLQCVPTEESNITMQIMRITVPLSQGPKPVTISFANHTSCRCMSKLD | binds | binds | no binding |
| 63-11 (ligand) GQNHHEVVKFMDVYQRSYCHPREVCIDVGKEYPDEIEYIFKPPCVSVYRCGGCCNSEGLQCVPTEESNITMQIMRITVPLSQGPKPVTISFLQHNKCECRPKKD | no binding | no binding | no binding |
| 41-13 (ligand) AHYNTEILKFMDVYQRSYCHPREVCIDVGKEYPDEIEYIFKPSCVPLMRCGGCCNDEGLECVPTEESNITMQIMRITVPLSQGPKPVTISFANHTSCRCMSKLD | no binding | no binding | no binding |
| 11-9 (ligand) GQNHHEVVKFMDVYQRSYCHPIETLVDIFQEYPDEIEYIFKPSCVPLMRCGGCCNDEGLECVPTEESNITMQIMRITVPLSQGPKPVTISFLQHNKCECRPKKD | binds | no binding | no binding |
| 11-3 (ligand) GQNHHEVVKFMDVYQRSYCHPIETLVDIFQEYPDEIEYIFKPSCVPLMRCGGCCNSEGLQCVPTEESNITMQIMRIKPHQGQHIGEMSFLQHNKCECRPKKD | binds | binds | no binding |

Second part, the binder after the results:

| binding result [1] | binding result [2] | binding result [3] | Binder |
| --- | --- | --- | --- |
| no binding | binds | binds | 22-4 (ligand) AHYNTEILKSIDNEWRKTQCMPREVCIDVGKEFGVATNTFFKPPCVSVYRCGGCCNSEGLQCMNTSTSYLSKTLFEIKPHQGQHIGEMSFLQHNKCECRPKKD |
| binds | no binding | no binding | 11-13 (ligand) GQNHHEVVKFMDVYQRSYCHPIETLVDIFQEYPDEIEYIFKPSCVPLMRCGGCCNDEGLECVPTEESNITMQIMRITVPLSQGPKPVTISFANHTSCRCMSKLD |
| no binding | no binding | no binding | 41-15 (ligand) AHYNTEILKFMDVYQRSYCHPREVCIDVGKEYPDEIEYIFKPSCVPLMRCGGCCNSEGLQCVPTEESNITMQIMRITVPLSQGPKPVTISFANHTSCRCMSKLD |
| no binding | no binding | no binding | 61-9 (ligand) GQNHHEVVKFMDVYQRSYCHPREVCIDVGKEYPDEIEYIFKPSCVPLMRCGGCCNDEGLECVPTEESNITMQIMRITVPLSQGPKPVTISFLQHNKCECRPKKD |
| binds | no binding | no binding | 13-15 (ligand) GQNHHEVVKFMDVYQRSYCHPIETLVDIFQEYPDEIEYIFKPPCVSVYRCGGCCNSEGLQCVPTEESNITMQIMRITVPLSQGPKPVTISFANHTSCRCMSKLD |
| no binding | no binding | no binding | 63-13 (ligand) GQNHHEVVKFMDVYQRSYCHPREVCIDVGKEYPDEIEYIFKPPCVSVYRCGGCCNDEGLECVPTEESNITMQIMRITVPLSQGPKPVTISFANHTSCRCMSKLD |
| binds | binds | no binding | 11-11 (ligand) GQNHHEVVKFMDVYQRSYCHPIETLVDIFQEYPDEIEYIFKPSCVPLMRCGGCCNSEGLQCVPTEESNITMQIMRITVPLSQGPKPVTISFLQHNKCECRPKKD |
| binds | binds | no binding | 11-7 (ligand) GQNHHEVVKFMDVYQRSYCHPIETLVDIFQEYPDEIEYIFKPSCVPLMRCGGCCNSEGLQCVPTEESNITMQIMRIKPHQGQHIGEMSFANHTSCRCMSKLD |
| binds | binds | no binding | 11-5 (ligand) GQNHHEVVKFMDVYQRSYCHPIETLVDIFQEYPDEIEYIFKPSCVPLMRCGGCCNDEGLECVPTEESNITMQIMRIKPHQGQHIGEMSFANHTSCRCMSKLD |
